The results in this text go back to patent US20050289668A1, “Plants with increased levels of one or more amino acids” (priority 2003, published 2005).

The subject of one data set is soybean seeds. Kind of data set: Free amino acid concentration in seeds of soybean transformed with threonine deaminase constructs (TCA extraction, OPA HPLC, fluorescence). The format is in vivo. The conditions noted are these: transformed soybean plants. The method, then: The concentration of free isoleucine in seeds was determined by crushing approximately 50 mg of seed, placing the crushed material in a centrifuge vial, and then weighing. One mL of 5% trichloroacetic acid was added to each sample vial. The samples were mixed, using a vortex mixer, at room temperature for 15 minutes. The samples were then spun in a microcentrifuge for 15 minutes at 14,000 rpm. Some of the supernatant was then removed, placed in a HPLC vial and sealed. Samples were kept at 4° C. prior to analysis. A single seed analysis was performed on all R1 soybean seed, with 5 seeds per event, and one injection per seed. For subsequent generations representing the R2 and R3 seeds, a bulk assay having 10 seeds for each event, and one injection per event was used. The samples were analyzed using the Agilent Technologies 1100 series HPLC system. A 0.5 μL aliquot of the sample was derivatized with 2.5 μL of OPA (o-phthalaldehyde and 3-mercaptopropionic acid in borate buffer, Hewlett-Packard PN 5061-3335) reagent in 10 μl of 0.4 N borate buffer pH 10.2 (Hewlett-Packard, PN 5061-3339). The derivative was injected onto an Agilent Technologies Eclipse® XDB-C18 3.5 μm, 4.6×75 mm at 2 mL/min flow rate. […] Isoleucine concentrations were measured using fluorescence detection (excitation at 340 nm, emission at 450 nm) and values were calculated from a standard curve ranging from 10 to 800 μg/mL. […]

The test system of data set [1] is E. coli threonine deaminase. As to the kind of experiment: Steady state kinetic analysis of E. coli ilvA threonine deaminase variants, continuous assay of α-ketobutyrate at 230 nm, with and without L-isoleucine. It counts as biochemical. The conditions noted are these: for Km: E. coli ilvA TD expressed in E. coli, crude extract, pH 7.5, read-out: Km^Thr; for IC50: inhibition of TD activity by L-isoleucine. The method, then:
Before conducting further transformation experiments using the isolated ilvA alleles in transgenic plants, each allele was over-expressed in E. coli to determine its kinetic parameters. Kinetics data on threonine deaminases containing various mutations, and a comparison to data available for threonine deaminases from Arabidopsis, are provided in Table 4. The E. coli ilvA481 variants were subcloned into pSE380 (Invitrogen, Carlsbad, Calif.) and expression was induced with 0.2 mM IPTG at 37° C. for 3 hours. Expression of the E. coli alleles was high and fairly consistent as visualized by SDS-PAGE.
The effects of amino acid substitutions at Leu481 in ilvA were assessed by steady state kinetic analysis in the presence and absence of L-isoleucine. Threonine deaminase polypeptides for use in in vitro kinetics studies were extracted from E. coli cells in assay buffer containing 50 mM potassium phosphate (pH7.5), 1 mM dithiothreitol (DTT), and 0.5 mM ethylenediamine-tetraacetate. A continuous assay method was employed to monitor the formation of α-ketobutyrate directly at 230 nm (ε230 (pH7.5)=540 M^−1cm^−1 whereas threonine absorption was negligible (˜1%)). The assay was initiated by adding 20 μl of crude extract diluted 1:20 v/v to the assay vessel containing L-threonine (between 2.5 mM and 50 mM) in a final volume of 1 mL. For L-isoleucine inhibition, L-isoleucine was added between 0 mM and 20 mM. The kinetic parameters were determined by fitting the data points to the equations using GraFit 4.0 software (Erithacus Software, Surrey, UK). For comparison, the kcat values of L481 alleles were normalized to the kcat value for the wild type IlvA enzyme. Enzymes represented in FIG. 7 are: wild type E. coli threonine deaminase (circles), L481Y TD enzyme (diamonds), L481F TD enzyme (triangles), and the L481T TD enzyme (squares). Table 4 also summarizes the kinetic parameters of the variant threonine deaminase enzymes produced by the various E. coli ilvA alleles.

The target of data set [2] is T1, Arabidopsis threonine deaminase (Arabidopsis thaliana, UniProt Q9ZSS6).
T1 sequence (Q9ZSS6 92-592): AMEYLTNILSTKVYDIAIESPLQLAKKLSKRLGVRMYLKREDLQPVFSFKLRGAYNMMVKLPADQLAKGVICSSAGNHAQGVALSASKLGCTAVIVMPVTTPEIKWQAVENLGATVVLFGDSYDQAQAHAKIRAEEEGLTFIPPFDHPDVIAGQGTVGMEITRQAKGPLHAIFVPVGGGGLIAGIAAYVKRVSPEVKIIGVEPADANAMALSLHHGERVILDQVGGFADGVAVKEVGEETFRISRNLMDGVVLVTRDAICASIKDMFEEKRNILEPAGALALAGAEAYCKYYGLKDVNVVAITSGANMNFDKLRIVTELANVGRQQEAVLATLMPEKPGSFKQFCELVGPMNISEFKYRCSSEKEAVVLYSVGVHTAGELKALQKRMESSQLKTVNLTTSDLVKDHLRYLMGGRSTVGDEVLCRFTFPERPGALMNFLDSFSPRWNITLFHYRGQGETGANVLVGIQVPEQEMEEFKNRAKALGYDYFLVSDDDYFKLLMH
As to the kind of experiment: Kinetics data for Arabidopsis threonine deaminases (comparison in Table 4, FIG. 6). The format is biochemical. The conditions noted are these: initial velocity vs threonine concentration.

Consider “ilvA219: mutagenized E. coli threonine deaminase gene containing the L447F mutation”, for which the “free isoleucine concentration in the seed” value with soybean seeds was greater than 600 µg/g.

On to “ilvA466: mutagenized E. coli threonine deaminase gene containing the L481F mutation”, for which the “free isoleucine concentration in the seed” value with soybean seeds was greater than 1300 µg/g.

B1: L481K: E. coli threonine deaminase, Leu at position 481 replaced with Lys (protein, listed as Escherichia coli)
chain: MADSQPLSGAPEGAEYLRAVLRAPVYEAAQVTPLQKMEKLSSRLDNVILVKREDRQPVHSFKLRGAYAMMAGLTEEQKAHGVITASAGNHAQGVAFSSARLGVKALIVMPTATADIKVDRLRGFGGEVLLHGANFDEAKRKAIELSQQQGFTWVPPFDHPMVIAGQGTLALELLQQDAHLDRVFVPVGGGGLAACVAVLIKQLMPQIKVIAVEAEDSACLKAALDAGHPVDLPRVGLFAEGVAVKRIGDETFRLCQEYLDDIITVDSDAICAAMKDLFEDVRAVAEPSGALALAGMKKYIALHNIRGERLAHILSGANVNFHGLRYVSERCELVEQREALLAVTIPEEKGSFLKFCQLLGGRSVTEFNYRFADAKNACIFVGVRLSRGLEERKEILQMLNDGGYSVVDLSDDEMAKLHVRYMVGGRPSHPLQERLYSFEFPESPGALLRFLNTLGTYWNISLFHYRSHGTDYGRVLAAFEKGDHEPDFETRLNELGYDCHDETNNPAFRFFLAG
In the case of B1, in data set [1] (expressed in E. coli), the enzyme activity entry is “poor enzyme activity”.

B2: L481M: E. coli threonine deaminase, Leu at position 481 replaced with Met (protein, listed as Escherichia coli)
chain: MADSQPLSGAPEGAEYLRAVLRAPVYEAAQVTPLQKMEKLSSRLDNVILVKREDRQPVHSFKLRGAYAMMAGLTEEQKAHGVITASAGNHAQGVAFSSARLGVKALIVMPTATADIKVDRLRGFGGEVLLHGANFDEAKRKAIELSQQQGFTWVPPFDHPMVIAGQGTLALELLQQDAHLDRVFVPVGGGGLAACVAVLIKQLMPQIKVIAVEAEDSACLKAALDAGHPVDLPRVGLFAEGVAVKRIGDETFRLCQEYLDDIITVDSDAICAAMKDLFEDVRAVAEPSGALALAGMKKYIALHNIRGERLAHILSGANVNFHGLRYVSERCELVEQREALLAVTIPEEKGSFLKFCQLLGGRSVTEFNYRFADAKNACIFVGVRLSRGLEERKEILQMLNDGGYSVVDLSDDEMAKLHVRYMVGGRPSHPLQERLYSFEFPESPGALLRFLNTLGTYWNISLFHYRSHGTDYGRVLAAFEMGDHEPDFETRLNELGYDCHDETNNPAFRFFLAG
With B2, in data set [1], the Km was 6.4 mM and the IC50 stood at 100 µM.

B3: L447F (ilvA219): E. coli threonine deaminase, Leu at position 447 replaced with Phe (protein, listed as Escherichia coli)
chain: MADSQPLSGAPEGAEYLRAVLRAPVYEAAQVTPLQKMEKLSSRLDNVILVKREDRQPVHSFKLRGAYAMMAGLTEEQKAHGVITASAGNHAQGVAFSSARLGVKALIVMPTATADIKVDRLRGFGGEVLLHGANFDEAKRKAIELSQQQGFTWVPPFDHPMVIAGQGTLALELLQQDAHLDRVFVPVGGGGLAACVAVLIKQLMPQIKVIAVEAEDSACLKAALDAGHPVDLPRVGLFAEGVAVKRIGDETFRLCQEYLDDIITVDSDAICAAMKDLFEDVRAVAEPSGALALAGMKKYIALHNIRGERLAHILSGANVNFHGLRYVSERCELVEQREALLAVTIPEEKGSFLKFCQLLGGRSVTEFNYRFADAKNACIFVGVRLSRGLEERKEILQMLNDGGYSVVDLSDDEMAKLHVRYMVGGRPSHPLQERLYSFEFPESPGAFLRFLNTLGTYWNISLFHYRSHGTDYGRVLAAFELGDHEPDFETRLNELGYDCHDETNNPAFRFFLAG
For the molecule B3, in data set [1] (initial velocity vs threonine concentration), the “cooperativity in substrate binding” value is listed as “negative cooperativity”.

B4: L481V: E. coli threonine deaminase, Leu at position 481 replaced with Val (protein, listed as Escherichia coli)
chain: MADSQPLSGAPEGAEYLRAVLRAPVYEAAQVTPLQKMEKLSSRLDNVILVKREDRQPVHSFKLRGAYAMMAGLTEEQKAHGVITASAGNHAQGVAFSSARLGVKALIVMPTATADIKVDRLRGFGGEVLLHGANFDEAKRKAIELSQQQGFTWVPPFDHPMVIAGQGTLALELLQQDAHLDRVFVPVGGGGLAACVAVLIKQLMPQIKVIAVEAEDSACLKAALDAGHPVDLPRVGLFAEGVAVKRIGDETFRLCQEYLDDIITVDSDAICAAMKDLFEDVRAVAEPSGALALAGMKKYIALHNIRGERLAHILSGANVNFHGLRYVSERCELVEQREALLAVTIPEEKGSFLKFCQLLGGRSVTEFNYRFADAKNACIFVGVRLSRGLEERKEILQMLNDGGYSVVDLSDDEMAKLHVRYMVGGRPSHPLQERLYSFEFPESPGALLRFLNTLGTYWNISLFHYRSHGTDYGRVLAAFEVGDHEPDFETRLNELGYDCHDETNNPAFRFFLAG
As to B4, in data set [1], the Km was found to be 7.1 mM and the midpoint of inhibition, the IC50, lay at 97 µM.

B5: Wild type Arabidopsis: wild type Arabidopsis threonine deaminase polypeptide (protein, UniProt Q9ZSS6 92-592, looked up)
Threonine dehydratase …: AMEYLTNILSTKVYDIAIESPLQLAKKLSKRLGVRMYLKREDLQPVFSFKLRGAYNMMVKLPADQLAKGVICSSAGNHAQGVALSASKLGCTAVIVMPVTTPEIKWQAVENLGATVVLFGDSYDQAQAHAKIRAEEEGLTFIPPFDHPDVIAGQGTVGMEITRQAKGPLHAIFVPVGGGGLIAGIAAYVKRVSPEVKIIGVEPADANAMALSLHHGERVILDQVGGFADGVAVKEVGEETFRISRNLMDGVVLVTRDAICASIKDMFEEKRNILEPAGALALAGAEAYCKYYGLKDVNVVAITSGANMNFDKLRIVTELANVGRQQEAVLATLMPEKPGSFKQFCELVGPMNISEFKYRCSSEKEAVVLYSVGVHTAGELKALQKRMESSQLKTVNLTTSDLVKDHLRYLMGGRSTVGDEVLCRFTFPERPGALMNFLDSFSPRWNITLFHYRGQGETGANVLVGIQVPEQEMEEFKNRAKALGYDYFLVSDDDYFKLLMH
Consider B5, for which the “cooperativity in substrate binding” value in data set [2] is recorded as “independent activity”.
